From the domain aggregation screens of Martell et al. (2025)

Assay: soluble fraction after stress (log2 fold change); higher = more stays soluble; pooled small domains, quantitative proteomics
Conditions: stress: 50 degC
Summary of the method: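 The stress applied to every library was 50°C. These custom libraries of small protein domains were pooled and measured at high throughput with quantitative proteomics as the read-out. Aggregation propensity is expressed as the base-two logarithm of the fold change in how much of each protein remains soluble. The higher the value, the more of that protein stays in solution.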

| Sequence | soluble fraction (log2) |
| --- | --- |
| HMKNYALHEPMMDRIAKVNALYDAGHTIKYMTARGAVSMVDYYDLTKSQLDSWGAKYHELSVGK | -0.0372 |
| HMDIMNNILINRIKKILTEQNMSKADLSRLTGISNSSLSEYLNGKYEPKQDKIALIAKALHVSPAWLMGF | -0.915 |
| HMPTSILEKILNSAAEQFTRYGFKTITMDDIARHAGVSKKTLYQHFETKLDIIVAAVTHFHTMKF | -0.718 |
| HMEFQISLAAARVNANMTQEDTARAMKVSKTTIVNWEKGKVIPGIPEVEMMSRLYGIPQDYIFLP | -3.2 |
| HMRALPAGQADLLKWIDGVTPRSVEELELLSGLEPGRLSELLMELELAGIVRAVAGDSYIKISKS | -0.462 |
| HMEVAPEKVLEALNELPEIYKIVLNLYAVENMSHKEIAKKLGISLGSSKSRLSRGRVMLNTLLNR | -1.42 |
| HMNNGYSINEIAKLMKMTLKVVRRYVASGELKTTKTNNTYSISEEAFNEFKKYIEEGGDAKHAQEVADTFK | -0.229 |
| HMSKNDLAGDEADVYKLLSVETGKPISDLVNRLPFGKSKTREILNTLAEKGFVYISGSGRGTKYHR | 0.0557 |
| HMVDKSYIHNQQVASDTWTVQHNLGKYPAVSVADTGNNEVYGDVRHINENTVELKFSHPFSGVAFF | 0.281 |
| HMVRDPYELLEVPREATPDEIKSAFRKLAARHHPDRNPDDPGAQERFKEINAAYQLLSDPQKRAMFDRFGA | 0.169 |
| HMDPVQLEVIKKLNLLNAQKPKDIYALRDVLSEMFPQSDIRLLLKELLDKGYIYWNGHEVIYSHEMF | -0.217 |
| HMSAIKSVTTQLDNTKLRTGPDVSYQYTQSYPANTKLTYINKSGTWYQVKDADGNTGYVASWVVTPSE | 0.236 |
| HMAMTITKIEKTSQQKIYYFTDSGRVFKKMSDRSATIAVDDRVELEGGVLGSKFFVTANGSRVKVKEV | -0.516 |
| HMNTLLYAPKVSPNPFTPNADGINDVVNISYKLLRVISAVPISVEVFDLSGRLIKTLYSGVDPLGEY | 0.158 |
| HMIDLPDIDIDFAKRTGVLEHITHTPARLETGKQHNTGVYFTDIPRGVDGLATMDHKRAEQLGYFKLDML | 0.0268 |
| HMNLLGDNIRKLRLEKGLGLNEVARLANITGGYLSSIENNKRTNVGTEILESIAKAIGVSVSDFYL | -0.0298 |
| HMTNQKEITYSQFRQELDQGSIKSVSLQGSRIRGTYVDGGISFRTLAPNDADLIPSLMKHKVDIQVLPED | 0.247 |
| HMEEVRFPLKKEILLWALKEAQVDEDEVFRKFTNLEKWINGEKHPTFKQIESLANYLKIPFGYMFLEKPPI | 0.0399 |
| HMGEAYVVPNVKNKTLGEAQLALHNQKLEGLVVDSSYVKGLPDGMILDQNPAGGARVKEGRTIYLTITTS | 0.00953 |
| HMTKEEIVVNWLPRYTKRNLEDFGEYILLTNFNKYVEIFAEKFNVPILGRDANMISASAEGITIIN | -0.191 |
| HMQPPLTPRELGVLQWAAEGKTTRDTSAILQIHQRTVEMHLKSAREKLDALNTTHAVARALAHGFILPPS | -0.0855 |
| HMASINRIENKNGKVVYRIIVSLGYDKQGKKLKKTITYNVNQTATKKQQENEALKYALDIEDKIKNGHD | -1.44 |
| HMSIDNALLTLIGKTGTAQTVLRPSGKVVIGDEVYDAVTAGEFIDKGSAIVVTRVEATQLYVEASEA | 0.0555 |

| Sequence | soluble fraction (log2) |
| --- | --- |
| HMEGNWGLWAKVPNRFAALTTDKDSALRRFKSKEDGEAWMASHGLKPERFDVLEIPADYKPA | 0.0433 |
| HMSAGPQGRTPREDELTVGTKVYVSRVGASGVVSSDVSRGKVVVQVGALRLTAAVSELLLLDG | 0.151 |
| HMAGPTIVTNSQGVPNYHLVKRGDTVSQIAQRYGLNYRQIGAINNLDSKYTIYSGQWLKLWQG | -0.702 |
| HMVDKTMYDRYAVDDYVRVIDGPLVGTEGRIIELDRETGNVKIEAVFFGRVTTADINFALIEKVD | 0.0531 |
| HMKRIDTILETFAKVHKHIPSKLILLGDGPELLDMRKIARSLHIEDDVLFLGKQDQVSKFYQMADLVLLL | -0.0419 |
| HMPINPKVKQIYDTLKDGGADVGSEKEFNDYFFAKGKDGYNNRKEVFNTLREGGADAGKSYEEFAGWLGL | 0.362 |
| HMSEATTVNYKYAVTISDLRIRKGPGTNYGSVGYTGKGVFTIVAEKGGWGKLKSGAGWISLNSKYGHKVS | -1.45 |
| HMEYSAAYDRELESIFNLTERGKWEEAEAEVGLLLQQYPEDKTLLRISEWVATQKTILREQAIEDRIRS | 0.186 |
| HMGIYFIIAAKNQENNIEEFIRTTLFRIVYGKEESINNITLVDLKSKDNTKNIMEEIARENENVKV | -0.335 |
| HMTSSQLNIEELERRMMMHLEQNGFITRSIYTNLTGRLKWKATEDLKIFVEKGLIRKMGRGNQMYYVKVE | -1.7 |
| HMLGAGFDSDLTARENIFLNGALLGHSRAVMRGYYDDIVNFAELHDFMDVPVKNFSSGMTSRLAFSIATIG | 0.00802 |
| HMYLPPYMEVRAVMILDGKPMALMYIEGEGDGLIVSPGYKFDNGKGKVVSITPTKVVVLWAGTKMELG | -2.14 |
| HMPASDPNEKQILRFLTEHQVITRKETQALLDVSQSTAGRVLKAMVDNGQIKQLGGSRNTRYELPM | -0.183 |
| HMQHRSRALHLQEELVRRYYDQAIAPFMIFWEMKANVTLDQLKELRAVVSPSLNEHPYTKQLDEYIRLAE | -0.505 |
| HMKMNRELNQRQIKMLDYLSVNPKTTRKQYTKMMGISFMTSYRDIQELIDKAYIISKGQGRGTYYILAN | -0.569 |
| HMDTGPSFATRRQEAFNALTQIAASNKEFMNVAGDVLWKVADFPEAQILAQRWRRIIPPNVLGEA | -0.193 |
| HMGTSMDPPVIIVSDGKLIQKGLEVSGLKKQWLYDLIDRKHMKISDIFLLTADKTGKYNLIKRS | 0.0904 |
| HMTVAEVEDRMEASRVRQALDAVGEPHRTTIALAYFTGLTHTEIAQRMGVPLGTVKSRIRDGMAKMRTHLG | -0.617 |
| HMKEDFPLLEQLRYTGEGADVTGTAEKMESIQALRSAADSGGFRATLGDIQQIPGGGLRFTLSLRGSR | 0.0335 |
| HMSQDLVVLGDSMLNNALKAFHIDPNAIKKKYWDKLILDYHLKSKEEVLTEIALGKKINVMVAHQLTSIMD | -0.0721 |
| HMSLNSELIARIENLIASIEDKRSWGYGFAESVLGQVQAGATLSPRQLEIIAKLEKENSYSVQLERQ | -0.765 |
| HMQLSASQQQILNHAAVNTDGKLVWFPETLKGGARKKVLDSLFSRALITTDGTHWFVAAEGYEALGIP | -0.877 |
| HMKTELAYDFHSRIRDARIREGLSQVDLAKRMNEKIAVIQKAENGIRPTDSLIAKFSKALSVELYVE | -1.26 |

| Sequence | soluble fraction (log2) |
| --- | --- |
| HMDGTEVTTEPPGAQVEYEGKQFGPTPARIPGLVAGKSLHITLPGYLEVKPKIKAVPKDGEPLSFTLTAI | 0.0823 |
| HMNEVIIKNWSNAVGRNIKIKTKRGRPIFGRLLAINDQQLTIASKYMRGNATITVAREDVVSMSVS | -0.516 |
| HMNNDIDRVFAELTVLSQKKGYLVFDDIEKGTEDLSVNEVDWLTNRLLTSGVEIFDDVPDTIK | -0.205 |
| HMGGWEEGVYVVREGDTLSDIVHDAVKGTEIHPDFILNAIVRVNPSAFVRGNPSWMLAGKKIK | -0.0469 |
| HMISDDLYQAVLDFTLTQDTISISRLQQNFNLGWPRARQLYDQLMQNGIIEPPDEANSAKGAVVIANKRG | 0.46 |
| HMGYSSKISELLTKYNMNASELAQKVGVPPTTIYSIIKRDSKKADIEVLIKIAKLFNVPVEYF | -0.99 |
| HMASELVSADEKYSGLVSYLLGRVVVVDQIDHAIALAKKYRYSLRIVTLDGELLSPGGSMTGGAFKNS | -0.0628 |
| HMSSKSLAALSPQEYRLLPLVAEGKTNKEIASALALSDKTVKNYLANIFSKLGITRRTQAATLYARAL | -0.167 |
| HMGETYTIPDVRGYTLEDAMELPEIKENGFTIIEGRQIVDADVPVGQIISQTPEAESIAKSNVKEITVNIS | 0.0323 |
| HMIAKEDDGTAFLIDGKISSEEEFKTISKDDILEVFVYKETEIAQKKLDSINSINNTYYTSLIEILLKE | -0.127 |
| HMAGTAFPVRIMLKGIDRIGLLNEITGYISVAMGVNMRKLNLSTEDGIFEGYIDMLVHDRTVLESMIDNL | -0.381 |
| HMPPLKYLKVKSYLEAVAVKAESAMRMPTVRELMNQFNVSLATVNRALSELENDGVIVRRQGSGIVAAG | 0.147 |
| HMRDLITYVVQINGKLRGKLEVAPDTDPEELKALALEVENVKRSLEGWVVKKVIVVPGKMVSIAAG | -0.193 |
| HMHVVVIDKQGALSYQGKAITLLDLKNIVIDVPKETPFLIKADKDIHLQSFVEVLDLIKTAGFKKVSLQ | -0.182 |
| HMNYEFLEKIGFSSNEAKVYGTLIKHKVLNGYEIAKLSGVARSLVYEVINRLVAKGAVIRIDGEPNFYKP | -1.8 |
| HMKSKHENLIDGLLKMISSMKPHDRLTPERQLAEEWAVSRMTLRRALEVLQFQGKIYTVPSSGLFVAEPK | -2.29 |
| HMKVSDPEAIKLIEQAQVKVIPFLDISEAADIQIALEELKNSEGTGQTDSAKVRLRNLLSPFSYL | 0.269 |
| HMDSSSYSAKVGTLIQETRQARGMTQAQLAQALGTSQSAINRIEKGGQNISLDMLNRISEVLSSQIVTLNP | -0.0626 |
| HMAVEQLKSQIGGFLKANREQSFSAQNMADGLRMNSAAGYQDVVNAMNALVRDGEAVEKDGQFSYNVN | 0.15 |
| HMGVEVPRGDGSTVVRVRAGSSLADFAERIGADPAALITVLFRMGEMATVNQSLDEDTFKLLGAELGYDVQ | -0.691 |
| HMLELLSMEDIQRTRVGDLIATVRQVDRQHALVLDRDPETGKPAVRGIFSLSQISLRLGLNI | -0.557 |
| HMSIYQYFNISEINSIDDLKKQYFKLAKKYHPDAGGDKVSFQELQNEYEQLTKKILSGAELNADELKTE | -0.109 |
